Measurements from patent US20230140293A1.

How the values were obtained:
Assay in all cases: cell-based or functional assay
[1] = molecular target: HIV-1 426c.TM (N276D/N460D/N463D) Env on Env-pseudotyped virus produced in 293T cells (HIV-1)
[2] = molecular target: HIV-1 426c.SM (N276D) Env on Env-pseudotyped virus produced in 293T cells (HIV-1)
[3] = molecular target: HIV-1 426c.TM (N276D/N460D/N463D) Env on Env-pseudotyped virus produced in 293s/GnTI-/- cells (Man5-enrichment) (HIV-1)
[4] = molecular target: HIV-1 426c.SM (N276D) Env on Env-pseudotyped virus produced in 293s/GnTI-/- cells (Man5-enrichment) (HIV-1)
[5] = molecular target: HIV-1 clade C strain 426c Env on Env-pseudotyped virus produced in 293s/GnTI-/- cells (Man5-enrichment) (HIV-1)
[6] = molecular target: HIV-1 clade C strain 426c Env on Env-pseudotyped virus produced in 293T cells (HIV-1)
[7] = molecular target: HIV-1 426c.DM (N460D/N463D) Env on Env-pseudotyped virus produced in 293s/GnTI-/- cells (Man5-enrichment) (HIV-1)
[8] = molecular target: HIV-1 426c.DM (N460D/N463D) Env on Env-pseudotyped virus produced in 293T cells (HIV-1)
[9] = molecular target: HIV-1 Env 426c.TM4 (S278R.G471S.N460D.N463D), Env-pseudotyped virus produced in 293T cells (HIV-1 clade C strain 426c)
[10] = molecular target: HIV-1 Env 426c.TM4 (S278R.G471S.N460D.N463D), Env-pseudotyped virus produced in 293S GnTI- cells (Man5-enriched) (HIV-1 clade C strain 426c)
[11] = molecular target: HIV-1 Env 426c.SM (N276D), Env-pseudotyped virus produced in 293S GnTI- cells (Man5-enriched) (HIV-1 clade C strain 426c)
[12] = molecular target: HIV-1 Env 426c.DM (N460D.N463D), Env-pseudotyped virus produced in 293S GnTI- cells (Man5-enriched) (HIV-1 clade C strain 426c)
[13] = molecular target: HIV-1 Env 426c.TM (N276D.N460D.N463D), Env-pseudotyped virus produced in 293S GnTI- cells (Man5-enriched) (HIV-1 clade C strain 426c)
[14] = molecular target: HIV-1 Env 426c, Env-pseudotyped virus produced in 293S GnTI- cells (Man5-enriched) (HIV-1 clade C strain 426c)

| Substance | ID50/IC50 in TZM-bl [1] [µg/mL] | ID50/IC50 in TZM-bl [2] [µg/mL] | ID50/IC50 in TZM-bl [3] [µg/mL] | ID50/IC50 in TZM-bl [4] [µg/mL] | ID50/IC50 in TZM-bl [5] [µg/mL] | ID50/IC50 in TZM-bl [6] [µg/mL] | ID50/IC50 in TZM-bl [7] [µg/mL] | ID50/IC50 in TZM-bl [8] [µg/mL] | IC50 (µg/ml) in TZM-bl [9] [µg/mL] | IC50 (µg/ml) in TZM-bl [10] [µg/mL] | IC50 (µg/ml) in TZM-bl [11] [µg/mL] | IC50 (µg/ml) in TZM-bl [12] [µg/mL] | IC50 (µg/ml) in TZM-bl [13] [µg/mL] | IC50 (µg/ml) in TZM-bl [14] [µg/mL] |
| --- | --- | --- | --- | --- | --- | --- | --- | --- | --- | --- | --- | --- | --- | --- |
| VRC34.1 (antibody) | 0.08 | 0.06 | 0.07 | 0.07 | 0.05 | 0.08 | 0.04 | 0.09 | – | – | – | – | – | – |
| VRC03 (antibody) | – | – | – | – | – | – | – | – | 0.003 | < 0.002 | 0.003 | 0.005 | 0.003 | 0.014 |
| VRC018 (antibody) | – | – | – | – | – | – | – | – | 0.005 | < 0.002 | 0.01 | 0.02 | 0.006 | 0.06 |
| VRC04 (antibody) | – | – | – | – | – | – | – | – | 0.013 | < 0.002 | 0.02 | 0.05 | 0.01 | 0.18 |
| VRC23 (antibody) | – | – | – | – | – | – | – | – | 0.082 | < 0.002 | 0.1 | 0.06 | 3.1 | 0.19 |
| VRC20 (VRC-PG20) (antibody) | – | – | – | – | – | – | – | – | < 0.002 | 0.008 | 0.004 | 0.007 | 0.005 | 0.015 |
| VRC07 (antibody) | – | – | – | – | – | – | – | – | < 0.002 | < 0.002 | 0.02 | 0.05 | 0.009 | 0.07 |
